This is an account of results in PMC8514943, “^68Ga-Labeled GX1 Dimer: A Novel Probe for PET/Cerenkov Imaging Targeting Gastric Cancer” (Frontiers in Oncology, 2021).

Read-outs that look alike come from different tables or passages of the source. Positions of bridges follow the written chain, without caps; N, C: chain ends. Residues, ends and D or L forms follow the SMILES beside them. *: point of attachment. DOTA = O=C(O)CN1CCN(CC(=O)O)CCN(CC(=O)*)CCN(CC(=O)O)CC1

The conditions of data set [1]: 37°C, determined at 0, 30, 60, 90 min, value holds for 90 min, radioactive TLC. The protocol: We used four kinds of solutions to observe the stability of the probes, namely, raw solution, normal saline, fresh mouse serum, and human serum. The specific methods were as follows: the probe and each solution were mixed according to a volume ratio of 1:100, and the original solution was kept as a control. The radiochemical purity of the solution was determined at 0, 30, 60, and 90 min. A curve was drawn to observe the stability of the probe in vitro and to speculate whether the probe would be removed from the standard in vivo.
Four kinds of solutions were used to observe the stability of the probe, namely, raw solution, normal saline, fresh mouse serum, and human serum. The probe was mixed with each solution at a volume ratio of 1:100, and the original solution was retained as a control. The radiochemical purity of the solution was determined after incubation for 0, 30, 60, and 90 min at 37°C.

Data set [2] concerns BGC-823 tumors. The data set is described as follows: Biodistribution in tumor-bearing nude mice. It is filed as in vivo, nude BALB/c mice. As to the method:
All of the experiments were performed according to a protocol approved by the Fourth Military Medical University (FMMU) Animal Care and Use Committee. A total of 0.2 ml of cell suspension (BGC823, 2 × 10^6 cells) was implanted by subcutaneous injection into the right upper limb of athymic female nude BALB/c mice (age, 4–6 weeks; weight, 15–20 g). When the diameter of the tumor reached approximately 8 mm, it could be used for imaging. […] For the biodistribution of the probes, 3.7 × 10^6 Bq of probe was injected intravenously. […] The percentage of injected dose per gram (%ID/g) was calculated. […] The %ID/g was calculated as described previously.

On to `NCCCC[C@H](NC(=O)[C@H](CCC(=O)O)NC(=O)[C@H](CCCCN)NC(=O)[C@@H]1CSSC[C@H](NC(=O)CN2CCN(CC(=O)O)CCN(CC(=O)O)CCN(CC(=O)O)CC2)C(=O)NCC(=O)N[C@@H](CC(N)=O)C(=O)N[C@@H](CO)C(=O)N[C@@H](CC(N)=O)C(=O)N2CCC[C@H]2C(=O)N[C@@H](CCCCN)C(=O)N[C@@H](CO)C(=O)N1)C(=O)N[C@H]1CSSC[C@@H](C(=O)O)NC(=O)[C@H](CO)NC(=O)[C@H](CCCCN)NC(=O)[C@@H]2CCCN2C(=O)[C@H](CC(N)=O)NC(=O)[C@H](CO)NC(=O)[C@H](CC(N)=O)NC(=O)CNC1=O` [^68Ga-DOTA-KEK-(GX1)2, metal not drawn] ({DOTA}-CGNSNPKSCKEKCGNSNPKSC-OH; disulfide 1-9, 13-21), for which the “labeling rate (radiochemical purity) remaining” value in data set [1] (fresh mouse serum, probe:solution 1:100 v/v) is “above 95%”; in data set [1] (human serum, probe:solution 1:100 v/v) it was “above 95%”; in data set [1] (normal saline, probe:solution 1:100 v/v), “above 95%”; in data set [1] (raw (original) solution kept as control), “above 95%”. The “radiation of the tumor over time” value in data set [2] (3.7 × 10^6 Bq i.v., 30, 60, 90 min, while kidney and liver radioactivity reduced rapidly) is recorded as “decreased relatively slowly”. In addition, in data set [2] (3.7 × 10^6 Bq i.v., 60 min, except for the liver and kidney), the “%ID/g of the tumor compared with organs” value is given as “higher than that of other normal organs”. The “uptake by tumors compared between probes (%ID/g)” value in data set [2] (3.7 × 10^6 Bq i.v., 60 min postinjection) is reported as “much higher than that of ^68Ga-DOTA-GX1”. In data set [2] (tumor/nontumor ratios, 30, 60, 90 min after injection), the T/NT ratios result is listed as “increased over time”.
